The target of test [1] is NbHUB1-GFP (Nicotiana benthamiana). The experiment in a line: FRET or BRET; FRET by acceptor photobleaching in epidermal cells of N. benthamiana leaves; EGFP/GFP fusion as donor, DsRed fusion as acceptor; FRET efficiency (EF) in percent; without ChiLCV.
In test [2] the target is NbUBC2-EGFP (Nicotiana benthamiana). Described as above.
Test [3] concerns the target Rep-DsRed (Chilli leaf curl virus). The experiment in a line: FRET or BRET; FRET by acceptor photobleaching in epidermal cells of N. benthamiana leaves, in the presence of ChiLCV, Rep proteins organised as punctate bodies.
In test [4] the target is NbUBC2-DsRed (Nicotiana benthamiana). The experiment in a line: FRET or BRET; FRET by acceptor photobleaching in epidermal cells of N. benthamiana leaves; EGFP/GFP fusion as donor, DsRed fusion as acceptor; FRET efficiency (EF) in percent; without ChiLCV. A general note: BRET reads energy transfer from a luciferase to a nearby fluorophore.

In test [1], Rep-DsRed (natural protein) registered an FRET efficiency of 58.7%. On the same count and under the same terms, under “Rep_(181-361)-DsRed (domain or fragment)” stands 58.5%. Consider Rep_(1-120)-DsRed (domain or fragment), for which the FRET efficiency in test [1] came to 45%; in test [2] it was 38%. The like results for Rep_(1-180)-DsRed (domain or fragment) were, in that order, 44% and 40.5%. For Rep-EGFP (natural protein), the FRET efficiency in the presence of ChiLCV in test [3] worked out at 68.7%. The same substance came in with an FRET efficiency in test [4] of 43.7%.
